# Target: the molecule itself
# Assay: 2D-DIGE with tandem mass spectrometry of picked spots
protein,measurement,value
"βB1-crystallin (natural protein, mouse (endogenous in mouse lens), UniProt Q9WVJ5 1-250, looked up) MSQAAKASATTAVNPGPDGKGKGAPSTGPAPAPGPTPVPASVPRPAAKVGDLPPGSYRLIVFEQENFQGRRVEFSGECLNLGDRGFDRVRSLIVVSGPWVAFEQSAFRGEMFVLEKGEYPRWDTWTSSYRSDRLMSFRPIRMDSQEHKICLFEGANFKGNTMEIQEDDVPSLWVYGFCDRVGSITVSGGTWVGYQYPGYRGYQYLLEPGDFRHWNEWGAFQPQMQAVRRLRDRQWHQEGCFPVLTAEPPK",stoichiometry N,2
